Measured values published in patent US20250011363A1, “OPTIMIZED SHORTENED PEPTIDE THAT BINDS TO ACETYLCHOLINE RECEPTOR, AND USE THEREOF” (SKINMED CO., LTD., priority 2021, published 2025).

Target: acetylcholine receptor
Test: SPR, AchR on chip, peptide 10 uM

Row | Binder | Binding affinity (RU)
1 | KQQQR [5mer-538] | 72 RU
2 | RQYCR [5mer-234] | 62 RU
3 | RLRCR [5mer-308] | 84 RU
4 | KVFLK [5mer-541] | 80 RU
5 | RWQQK [5mer-6] | 61 RU
6 | KWLCK [5mer-548] | 60 RU
7 | RGVQR [5mer-9] | 77 RU
8 | RLISK [5mer-13] | 52 RU
9 | RQFYR [5mer-540] | 74 RU
10 | KRLYR [5mer-239] | 61 RU
11 | KGQYR [5mer-545] | 80 RU
12 | RLVYK [5mer-533] | 84 RU
13 | KVVYK [5mer-25] | 60 RU
14 | RVQRR [5mer-10] | 55 RU
15 | KQICK [5mer-532] | 75 RU
16 | KSQRR [5mer-324] | 58 RU
17 | RWYCR [5mer-247] | 80 RU
18 | KRFLR [5mer-4] | 58 RU
19 | KRIYK [5mer-17] | 70 RU
20 | RGLRK [5mer-237] | 77 RU
21 | RGRYK [5mer-20] | 78 RU
22 | KQVLK [5mer-238] | 58 RU
23 | KRYTR [5mer-542] | 85 RU
24 | RWYLK [5mer-248] | 63 RU
25 | RVVQR [5mer-320] | 75 RU
26 | KRICK [5mer-305] | 72 RU
27 | RSLSR [5mer-321] | 68 RU

Row | Binder | Binding affinity (RU)
28 | RQRSK [5mer-245] | 62 RU
29 | RWYTR [5mer-314] | 80 RU
30 | KRISR [5mer-2] | 80 RU
31 | RLQLR [5mer-544] | 63 RU
32 | KLLSK [5mer-243] | 51 RU
33 | RQRSR [5mer-8] | 51 RU
34 | KSQCR [5mer-24] | 67 RU
35 | KGVCK [5mer-15] | 75 RU
36 | KQYLR [5mer-316] | 73 RU
37 | RLITK [5mer-536] | 78 RU
38 | RVQTR [5mer-319] | 74 RU
39 | KSYYR [5mer-306] | 74 RU
40 | RSVRK [5mer-304] | 76 RU
41 | RGYTK [5mer-242] | 64 RU
42 | KWFTR [5mer-21] | 63 RU
43 | KSFTR [5mer-246] | 60 RU
44 | RVVTR [5mer-539] | 70 RU
45 | KVRCR [5mer-241] | 51 RU
46 | RLRLR [5mer-537] | 59 RU
47 | KVQYR [5mer-309] | 70 RU
48 | RQQLK [5mer-22] | 66 RU
49 | KRFQR [5mer-19] | 72 RU
50 | KRVLK [5mer-3] | 66 RU
51 | KGYSK [5mer-235] | 70 RU
52 | RVFLR [5mer-12] | 70 RU
53 | RLRLK [5mer-543] | 65 RU
54 | KWYYR [5mer-323] | 77 RU

Row | Binder | Binding affinity (RU)
55 | RQLTK [5mer-7] | 54 RU
56 | KGRYR [5mer-303] | 87 RU
57 | KQRLR [5mer-11] | 84 RU
58 | KRVCK [5mer-318] | 64 RU
59 | KRYCR [5mer-312] | 81 RU
60 | KWRYR [5mer-240] | 51 RU
61 | RQLRR [5mer-18] | 69 RU
62 | KQVTK [5mer-547] | 77 RU
63 | KSLLR [5mer-535] | 70 RU
64 | KVVLK [5mer-546] | 65 RU
65 | KQRCK [5mer-307] | 82 RU
66 | KWLYK [5mer-23] | 86 RU
67 | RRQLR [5mer-534] | 50 RU
68 | RRILK [5mer-302] | 70 RU
69 | RRVQR [5mer-317] | 86 RU
70 | KLYTK [5mer-16] | 66 RU
71 | KSRQR [5mer-310] | 78 RU
72 | RRQSR [5mer-322] | 84 RU
73 | KLFSR [5mer-315] | 77 RU
74 | KRRCK [5mer-236] | 81 RU
75 | RVYYK [5mer-233] | 84 RU
76 | RWLCK [5mer-14] | 63 RU
77 | KSVSK [5mer-244] | 78 RU
78 | RSQLK [5mer-313] | 75 RU
79 | KLFLR [5mer-5] | 54 RU
